In IntAct's records for PubMed 26751641:

B1: Chromodomain-helicase-DNA-binding protein 1 (Homo sapiens), O14646 (parent)
chain: MNGHSDEESVRNSSGESSQSDDDSGSASGSGSGSSSGSSSDGSSSQSGSSDSDSGSESGSQSESESDTSRENKVQAKPPKVDGAEFWKSSPSILAVQRSAILKKQQQQQQQQQHQASSNSGSEEDSSSSEDSDDSSSEVKRKKHKDEDWQMSGSGSPSQSGSDSESEEEREKSSCDETESDYEPKNKVKSRKPQNRSKSKNGKKILGQKKRQIDSSEEDDDEEDYDNDKRSSRRQATVNVSYKEDEEMKTDSDDLLEVCGEDVPQPEEEEFETIERFMDCRIGRKGATGATTTIYAVEADGDPNAGFEKNKEPGEIQYLIKWKGWSHIHNTWETEETLKQQNVRGMKKLDNYKKKDQETKRWLKNASPEDVEYYNCQQELTDDLHKQYQIVERIIAHSNQKSAAGYPDYYCKWQGLPYSECSWEDGALISKKFQACIDEYFSRNQSKTTPFKDCKVLKQRPRFVALKKQPSYIGGHEGLELRDYQLNGLNWLAHSWCKGNSCILADEMGLGKTIQTISFLNYLFHEHQLYGPFLLVVPLSTLTSWQREIQTWASQMNAVVYLGDINSRNMIRTHEWTHHQTKRLKFNILLTTYEILLKDKAFLGGLNWAFIGVDEAHRLKNDDSLLYKTLIDFKSNHRLLITGTPLQNSLKELWSLLHFIMPEKFSSWEDFEEEHGKGREYGYASLHKELEPFLLRRVKKDVEKSLPAKVEQILRMEMSALQKQYYKWILTRNYKALSKGSKGSTSGFLNIMMELKKCCNHCYLIKPPDNNEFYNKQEALQHLIRSSGKLILLDKLLIRLRERGNRVLIFSQMVRMLDILAEYLKYRQFPFQRLDGSIKGELRKQALDHFNAEGSEDFCFLLSTRAGGLGINLASADTVVIFDSDWNPQNDLQAQARAHRIGQKKQVNIYRLVTKGSVEEDILERAKKKMVLDHLVIQRMDTTGKTVLHTGSAPSSSTPFNKEELSAILKFGAEELFKEPEGEEQEPQEMDIDEILKRAETHENEPGPLTVGDELLSQFKVANFSNMDEDDIELEPERNSKNWEEIIPEDQRRRLEEEERQKELEEIYMLPRMRNCAKQISFNGSEGRRSRSRRYSGSDSDSISEGKRPKKRGRPRTIPRENIKGFSDAEIRRFIKSYKKFGGPLERLDAIARDAELVDKSETDLRRLGELVHNGCIKALKDSSSGTERTGGRLGKVKGPTFRISGVQVNAKLVISHEEELIPLHKSIPSDPEERKQYTIPCHTKAAHFDIDWGKEDDSNLLIGIYEYGYGSWEMIKMDPDLSLTHKILPDDPDKKPQAKQLQTRADYLIKLLSRDLAKKEALSGAGSSKRRKARAKKNKAMKSIKVKEEIKSDSSPLPSEKSDEDDDKLSESKSDGRERSKKSSVSDAPVHITASGEPVPISEESEELDQKTFSICKERMRPVKAALKQLDRPEKGLSEREQLEHTRQCLIKIGDHITECLKEYTNPEQIKQWRKNLWIFVSKFTEFDARKLHKLYKHAIKKRQESQQNSDQNSNLNPHVIRNPDVERLKENTNHDDSSRDSYSSDRHLTQYHDHHKDRHQGDSYKKSDSRKRPYSSFSNGKDHRDWDHYKQDSRYYSDREKHRKLDDHRSRDHRSNLEGSLKDRSHSDHRSHSDHRLHSDHRSSSEYTHHKSSRDYRYHSDWQMDHRASSSGPRSPLDQRSPYGSRSPFEHSVEHKSTPEHTWSSRKT

Variants of: B1
Details: with KDM1A

Row | effect of a mutation on the interaction | Variant
1 | disrupting interaction strength | D425A
